Experimental data as given in patent publication US20210332136A1.

Biological target: human PD-L1 on RT4 human bladder cancer cells (human) (UniProt Q9NZQ7)
Test: cell-based or functional assay

Sequence of human PD-L1 on RT4 human bladder cancer cells (human) (Q9NZQ7 19-290): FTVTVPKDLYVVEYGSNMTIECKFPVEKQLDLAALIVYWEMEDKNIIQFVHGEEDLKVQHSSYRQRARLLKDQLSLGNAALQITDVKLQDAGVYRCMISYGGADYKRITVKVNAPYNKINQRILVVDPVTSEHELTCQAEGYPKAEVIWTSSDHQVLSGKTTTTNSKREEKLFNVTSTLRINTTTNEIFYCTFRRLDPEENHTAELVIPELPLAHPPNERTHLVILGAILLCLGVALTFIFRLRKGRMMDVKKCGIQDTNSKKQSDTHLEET

## atezolizumab (antibody)
  viability of RT4 cells treated in vitro with rabusertib (Chk1 inhibitor) plus atezolizumab: 100%
